In the assay the target is T1, RRM1 subunit of ribonucleotide reductase (human (endogenous in RKO), UniProt P23921 1-792).
T1 sequence (looked up): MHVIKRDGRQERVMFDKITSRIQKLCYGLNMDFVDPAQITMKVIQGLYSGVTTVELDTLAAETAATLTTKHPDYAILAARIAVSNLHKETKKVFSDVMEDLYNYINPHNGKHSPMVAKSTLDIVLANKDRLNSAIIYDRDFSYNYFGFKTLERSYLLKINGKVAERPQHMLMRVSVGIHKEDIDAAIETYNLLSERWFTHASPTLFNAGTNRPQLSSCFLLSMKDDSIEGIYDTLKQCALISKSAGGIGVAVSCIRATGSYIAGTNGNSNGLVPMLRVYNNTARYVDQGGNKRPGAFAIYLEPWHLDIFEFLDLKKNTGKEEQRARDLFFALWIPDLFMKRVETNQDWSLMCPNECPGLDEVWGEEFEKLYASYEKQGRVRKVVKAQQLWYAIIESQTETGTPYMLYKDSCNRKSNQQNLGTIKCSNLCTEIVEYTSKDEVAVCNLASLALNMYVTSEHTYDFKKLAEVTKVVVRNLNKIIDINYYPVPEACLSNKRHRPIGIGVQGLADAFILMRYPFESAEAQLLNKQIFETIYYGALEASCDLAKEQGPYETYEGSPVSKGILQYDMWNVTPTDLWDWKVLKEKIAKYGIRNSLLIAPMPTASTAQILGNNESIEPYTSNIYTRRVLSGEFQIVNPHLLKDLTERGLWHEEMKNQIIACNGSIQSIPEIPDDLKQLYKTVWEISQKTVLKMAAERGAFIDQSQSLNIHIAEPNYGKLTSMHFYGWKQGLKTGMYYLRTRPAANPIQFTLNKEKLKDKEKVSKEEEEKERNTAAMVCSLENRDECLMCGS
The assay can be described thus: co-IP.

B1: RRM2 subunit of ribonucleotide reductase (natural protein, human (endogenous in RKO), UniProt P31350 1-389, looked up)
chain: MLSLRVPLAPITDPQQLQLSPLKGLSLVDKENTPPALSGTRVLASKTARRIFQEPTEPKTKAAAPGVEDEPLLRENPRRFVIFPIEYHDIWQMYKKAEASFWTAEEVDLSKDIQHWESLKPEERYFISHVLAFFAASDGIVNENLVERFSQEVQITEARCFYGFQIAMENIHSEMYSLLIDTYIKDPKEREFLFNAIETMPCVKKKADWALRWIGDKEATYGERVVAFAAVEGIFFSGSFASIFWLKKRGLMPGLTFSNELISRDEGLHCDFACLMFKHLVHKPSEERVREIIINAVRIEQEFLTEALPVKLIGMNCTLMKQYIEFVADRLMLELGFSKVFRVENPFDFMENISLEGKTNFFEKRVGEYQRMGVMSSPTENSFTLDADF
Consider B1, for which the “fold decrease of RRM2 bound to RRM1 in <0.1% O2 against normoxia” value was found to be 1.8 fold.

B2: RRM2B subunit of ribonucleotide reductase (natural protein, human (endogenous in RKO), UniProt Q7LG56 1-351, looked up)
chain: MGDPERPEAAGLDQDERSSSDTNESEIKSNEEPLLRKSSRRFVIFPIQYPDIWKMYKQAQASFWTAEEVDLSKDLPHWNKLKADEKYFISHILAFFAASDGIVNENLVERFSQEVQVPEARCFYGFQILIENVHSEMYSLLIDTYIRDPKKREFLFNAIETMPYVKKKADWALRWIADRKSTFGERVVAFAAVEGVFFSGSFAAIFWLKKRGLMPGLTFSNELISRDEGLHCDFACLMFQYLVNKPSEERVREIIVDAVKIEQEFLTEALPVGLIGMNCILMKQYIEFVADRLLVELGFSKVFQAENPFDFMENISLEGKTNFFEKRVSEYQRFAVMAETTDNVFTLDADF
Consider B2, for which the “fold increase of RRM2B bound to RRM1 in <0.1% O2 against normoxia” value is 5.3 fold.

For the origin of these results see article PMC5405111 (Molecular Cell, 2017).
